Assay results reported in patent US20200276237A1 (MIE UNIVERSITY, published 2020).

Columns and labels:
[1] = biological target: T1, HLA-A2/MAGE-C2 risk peptide on T2 cells (human); assay: FACS on T2 cells pulsed with risk peptide
T1 construct: whole, on cells

[2] = biological target: T2, HLA-A2/MAGE-A11 risk peptide on T2 cells (human); assay: FACS on T2 cells pulsed with risk peptide
T2 construct: whole, on cells

[3] = biological target: T3, HLA-A2/MAGE-B2 risk peptide on T2 cells (human); assay: FACS on T2 cells pulsed with risk peptide
T3 construct: whole, on cells

[4] = biological target: T4, HLA-A2/MAGE-B10 risk peptide on T2 cells (human); assay: FACS on T2 cells pulsed with risk peptide
T4 construct: whole, on cells

[5] = biological target: T5, HLA-A2/MAGE-A10 risk peptide on T2 cells (human); assay: FACS on T2 cells pulsed with risk peptide
T5 construct: whole, on cells

[6] = biological target: T6, HLA-A2/RBBP5 risk peptide on T2 cells (human); assay: FACS on T2 cells pulsed with risk peptide
T6 construct: whole, on cells; Theoretical MHC IC50 is high (5880.0 nM)

[7] = biological target: T7, HLA-A2/MAGE-A8 risk peptide on T2 cells (human); assay: FACS on T2 cells pulsed with risk peptide
T7 construct: whole, on cells

[8] = biological target: T8, HLA-A2-MAGE-A4 p230 monomer (human); assay: SPR, BiacoreX100, HLA-A2-MAGE-A4 p230 on sensor chip CAP, purified scFv 12.5-200 nM, single cycle
T8 construct: Biotinylated soluble monomer, captured on neutravidin plates (ELISA) or on the Biacore sensor chip CAP; also called HLA-A2-MAGE-A4 monomer; MAGE-A4-derived peptide/HLA-A2 complex
Method: Determination of KD value by Biacore was determined by measuring the dynamic changes in detection sensitivity (resonance, reflecting the change in mass on the chip) over time. The dissociation rate constant (Kd) and the binding rate constant (Ka) were determined by dynamic change curve, the binding constant was determined from the ratio of the two constants.

- binding result [1]: no binding
- binding result [2]: no binding
- binding result [3]: no binding
- binding result [4]: no binding
- binding result [5]: no binding
- binding result [6]: no binding
- binding result [7]: no binding
- Kd [8]: 22 nM
B1: MAGE #17 scFv-FLAG/His (scFv)
scFv: QVQLVQSGAEVKKPGSSVKVSCKASGGTFSSYAISWVRQAPGQGLEWMGGIIPIFGTANYAQKFQGRVTITADKSTSTAYMELSSLRSEDTAVYYCARSPRRAYHDAFDIWGQGTMVTVSSGGGGSGGGGSGGGGSSYELTQPPSMSVAPGKTASITCGGDHIGSKSVHWYQQKPGQAPVLVVYDDSDRPSGIPERFSGSNSGNTATLTISGTQAMDEADYYCLAWDSSTAIFGGGTKLTVL
notes: Purified scFv-FLAG/His form, used for Biacore and for FACS on T2 cells (detection with anti-FLAG); also called clone #17; anti-MAGE #17; not shown: FLAG tag and His tag from the His/FLAG expression vector
